Reference: the DeepSol protein solubility set

assay: soluble on expression in E. coli; label from the status in PepcDB or PDB records

**Q.** With “MKIKEVRITGFRSYKDNTNVSGFSPRSNVVVGRNGSGKSNFFHAIQFVLSDEYAHLKEEQRLGLLHESTGPKVAHARVEITFDNSEKRLMAFENSEVKIVRQVGKKKDQYYIDNKMVPRAEVVNLMESAGFSRSNPYYIVKQGKINELATSPDAYKLKLLREVAGTRVYDERKEESLKILKETKMKTEKIQGLLKYIDERLQTLENEKEDLKEYQKLDKTKRSVEYTMYDNTNKEAIKEKTKLDEQKVELNQKDNNVKSQLNDVIAEMAKLKTDKKKLESLGRGLREDKETLQAEETKMVEEKMTLKLEIDSLNEENTRERQGRQNAEHSLQGVGDEIFKNEEELDTIKPEYAKLLEEESRLKTDIRIDESRAKEILAKQGQRSQFSSVDDRDKFLRNEIRRISGLIADNKEREETIQKELADVEREDEKLNNEIQSISRTIDENRYEMDTFAAKSTSLKQEYDAAYVAQQTAAREEKAIRDKIGNTEQDISAANDQLRRIVARPVYNGITGVRKVIEEFKHDNRNGQHDDVINGYYGTVIELAEVPDMFRTAVEVIAQNRLFYHVVETDRIATKILRKFNEMQLPGEINFFPMNRVSAPRQRDLSNNSNARPMSDVIDYEVQYDKVFKSITANVIIVRTLDQAARDLRNEGFDVVSVDGDQMSKKGVMTGGFIDKKRSKLELHTQKDRFTKELAELQKSLAEAEKMVRERTQEAEKIRNRMQQHENQIGDFHRKHRELTEAKNAISQQFYMVTSTKEPKKDQLLGIKNHLRELLAQKENFEQEIGSNMSSQLTSDEEQTVKKLRKKVDEMTKQLATVSRRRMDLMHRKNAIENLLTKKLYKTKESLTAKNPKFFLQRVDDISDNERRHKLENANAQLTSLLTRMESTRKQLATAISELQDYETKEKALQINIDNVLEQQRDLEKQQADFQLQYDKITAKEDEVKQKREDSLKKLILSRYSIKTRKNQFSYEISDSEEVGAKREPIEHRKLKISTFCLEYRAKLEKVHSNMRLLGALPTDTFSKWQNVKPRELEKKLLECVNELKKYENVNKKALDQYMTASSQKEELTKRMAEQKKSEDSIEELLKVLENRKYEAIDLTFKQVKKNFEQVFKQLVPHGRGKMQMRAREQRDDEEGINSVELYEGISVLVSFVSDDGDSETREMTQLSGGQKSLVALAIIFSIQKCDPAPFYLFDEIDAALDAQHRKSVADMIQSLSDQAQFVTTTFRPELLATAEKFYGVRFRNKVSHIDSVTREQAYDFVEDDTTHG” as the sequence, how does the “soluble on expression in E. coli” value read?
**A.** not soluble

**Q.** With “MGSDKIHHHHHHMTQPFIPEQEYKRTDLHKQYGGNAQSGISNCANYPYIFIFSGVTGKQHGYKDGWENPNVFEYTGEGQMGDMSFTRGNLALRDHIDNGKQVFLFQYQRSGIVKYICELEFYDTDYFPTHDSSKQLRVGIRFFLKRKGAILPSVKELNQSTDFLAAESIPFYGIDSIKETSRKGEVNLRVGQGAYRKSIIHHWQYKCAVTGFDKLNLLNASHIHPWKDATDKERLDVNNGILLSPTYDALFDKHLISFENDGKIILSDTIHFSAYQKIGVTGKEKIKELNSNSILYIEKHRHLLLKY” as the sequence, how does the “soluble on expression in E. coli” value read?
**A.** not soluble

**Q.** With “MARFVVLVIDSFGVGAMKDVTLVRPQDAGANTCGHILSQLPHLQLPTLETLGLINALGYAPGDMQPSDSATWGVAELQHEGGDTFMGHQEILGTRPLPPLRMPFRDVIDRVEQALVSAGWQVERRGDDLQFLWVNQAVAIGDNLEADLGQVYNITANLSVISFDDAIKIGRIVREQVQVGRVITFGGLLTDSQRILDAAESKEGRFIGINAPRSGAYDNGFQVVHMGYGVDEKVQVPQKLYEAGVPTVLVGKVADIVNNPYGVSWQNLVDSQRIMDITLNEFNTHPTAFICTNIQETDLAGHAEDVARYAERLQVVDRNLARLVEAMQPDDCLVVMADHGNDPTIGHSHHTREVVPVLVYQQGMIATQLGVRTTLSDVGATVCEFFRAPPPQNGRSFLSSLRFAGDTLGKWYYLNSNGAMVTGSQTIDGKVYNFASSGEWI” as the sequence, how does the “soluble on expression in E. coli” value read?
**A.** not soluble

**Q.** Which “soluble on expression in E. coli” value does the source give for “SNAMEKYILSIDQGTTSSRAILFNQKGEIAGVAQREFKQYFPQSGWVEHDANEIWTSVLAVMTEVINENDVRADQIAGIGITNQRETTVVWDKHTGRPIYHAIVWQSRQTQSICSELKQQGYEQTFRDKTGLLLDPYFAGTKVKWILDNVEGAREKAENGDLLFGTIDTWLVWKLSGKAAHITDYSNASRTLMFNIHDLEWDDELLELLTVPKNMLPEVKASSEVYGKTIDYHFYGQEVPIAGVAGDQQAALFGQACFERGDVKNTYGTGGFMLMNTGDKAVKSESGLLTTIAYGIDGKVNYALEGSIFVSGSAIQWLRDGLRMINSAPQSESYATRVDSTEGVYVVPAFVGLGTPYWDSEARGAIFGLTRGTEKEHFIRATLESLCYQTRDVMEAMSKDSGIDVQSLRVDGGAVKNNFIMQFQADIVNTSVERPEIQETTALGAAFLAGLAVGFWESKDDIAKNWKLEEKFDPKMDEGEREKLYRGWKKAVEATQVFKTE” here?
**A.** soluble

**Q.** With “MGSDKIHHHHHHMPFDPKIRGPLDVRPLLQLMSAGSWQVELAHERDCHLVIWITRGQGRVLLDGQCRGFGPHTALCIPARTLFSLELGRQCIGQVLRIGEDIPCGLPETPMQIRINDMQEQGRINALFDAALREQQVADDHTAKAITSYADLVGIHLQRLWVRAPENRKPTAARRLCRAYCARLAQDAEGAFNMAGHASELGVTPTHLTRVCKQETGKTAAALLTERQLHAARSLLASTRLPMRDIAQSLGFGSAAYFTRFITQHTGSTPSDLRKKAHGAQLASGRNP” as the sequence, how does the “soluble on expression in E. coli” value read?
**A.** not soluble

**Q.** For “MRKITSVSVGEQLDSFITRMVQSGRYGSASEVMRSALRLLEQQESRDEAVRNAVIEGLESGESSMTLRDIAAERKQKHRV”, which “soluble on expression in E. coli” value is on record?
**A.** soluble

**Q.** For “ADKKLVVATDTAFVPFEFKQGDLYVGFDVDLWAAIAKELKLDYELKPMDFSGIIPALQTKNVDLALAGITITDERKKAIDFSDGYYKSGLLVMVKANNNDVKSVKDLDGKVVAVKSGTGSVDYAKANIKTKDLRQFPNIDNAYMELGTNRADAVLHDTPNILYFIKTAGNGQFKAVGDSLEAQQYGIAFPKGSDELRDKVNGALKTLRENGTYNEIYKKWFGTEPK”, which “soluble on expression in E. coli” value is on record?
**A.** soluble

**Q.** With “MLRFTNCSCKTFVKSSYKLNIRRMNSSFRTETDAFGEIHVPADKYWGAQTQRSFQNFKIGGARERMPLPLVHAFGVLKKSAAIVNESLGGLDPKISKAIQQAADEVASGKLDDHFPLVVFQTGSGTQSNMNANEVISNRAIEILGGKIGSKQVHPNNHCNQSQSSNDTFPTVMHIAASLQIQNELIPELTNLKNALEAKSKEFDHIVKIGRTHLQDATPLTLGQEFSGYVQQVENGIQRVAHSLKTLSFLAQGGTAVGTGLNTKPGFDVKIAEQISKETGLKFQTAPNRFEALAAHDAIVECSGALNTLACSLFKIAQDIRYLGSGPRCGYHELMLPENEPGSSIMPGKVNPTQNEALTQVCVQVMGNNAAITFAGSQGQFELNVFKPVMIANLLNSIRLITDAAYSFRVHCVEGIKANEPRIHELLTKSLMLVTALNPKIGYDAASKVAKNAHKKGITLKESALELGVLTEKEFDEWVVPEHMLGPK” as the sequence, how does the “soluble on expression in E. coli” value read?
**A.** soluble

**Q.** With “GSHADLLRKNAEVTKQVSMARQAQVDLEREKKELEDSLERISDQGQRKTQEQLEVLESLKQELATSQRELQVLQGSLETSAQSEANWAAEFAELEKERDSLVSGAAH” as the sequence, how does the “soluble on expression in E. coli” value read?
**A.** soluble

**Q.** With “MLHAETEVIVEDEPPILNLSRYRDEDRIQMDPFGDDEEEDDGFMDGQPPDLEMNLPSKQRRVRTRKPMDTDGSIDDGDKEKKAMKIINPAAATPSKMFRVQGERVISKALAERQYHVKLFEDEVEMTENGDCYATVISGCLAYLLRKERIIELLTNETEIAMMYGDKKKKYKKKISSKNKENCQNFKLLSEKSVRKKKQKSTVPIFSREGGWLLDKPPRLPPLVPHKACFAFYVDGSKIMSIKDVSNDDLKPWSSTGGEQHFNDPVIKPNVRRHPVARLNGRLQSVKGDPRIAELHLTEYSAWLPRLLRLRKKIFYLSRDGQIYGNVLILYDYTCPGEIPPIVNLPHGNDYLRHAMVDPTDPHVSLDLDDPGSTPFEDEIVEGPRGGMFLRVKLAKLGWAHNKKLLLRYLVNEPELLSQSNCLNRRTPYLPPLIPTTGVFVYFVPANFVANQINHTGDGLSPWTVNPASEGPSPRVRSTRRAIVQDDNGQFQMAKDTAGGWHSSQLCLVETMSVLARCPRLRKRLIYIQRNNTITIGNVCYIYEYVRDGPVPCPYVKPPGTPGRGVGGSKWIDDQKKIDTSQDPSTSSAAPNDEEQFIDVEDLEVVEEEVIGHHNDSLDQIQLQHDQHQQQQHQLMQDVSIAQDAQGHLLDDDLLDMSQEDVLNNGYDLEFDDDPLTQQENPAPYFENPRQLETGHIYLTVRHKRVASTFEAVLEWIANTNVVEERGLLNYAKPGHPPIVRNSRAYAFFVAGTAIFPHDINRDDFSPWSHNGNAQNPTCYRTKVRKVGVICDELGSQFQVLHGSQGKQPKKSDGNRRSPKIPKSAYFL” as the sequence, how does the “soluble on expression in E. coli” value read?
**A.** not soluble
